Numbering of substitutions follows the chain as printed.

In this test the target is T1, B cell maturation antigen (BCMA) (human, UniProt Q02223 1-184).
T1 construct: BCMA as carried by RPMI-8226 (high BCMA) and Daudi (low BCMA) tumor cells; also called TNFRSF17; tumor necrosis factor receptor superfamily member 17
T1 sequence: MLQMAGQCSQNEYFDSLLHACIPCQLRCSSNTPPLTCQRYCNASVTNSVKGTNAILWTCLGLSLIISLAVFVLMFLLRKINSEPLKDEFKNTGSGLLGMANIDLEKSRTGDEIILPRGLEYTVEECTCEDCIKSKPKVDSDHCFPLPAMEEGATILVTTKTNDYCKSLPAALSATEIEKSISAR
The test can be described thus: co-culture of transduced PBMCs with RPMI-8226 (high BCMA) or Daudi (low BCMA) cells; recognition read by IFNγ. On the procedure:
PBMCs transduced with recombinant lentiviral particles comprising a viral envelope expressing a mutated VSIV-G and a non-viral membrane-bound tropism polypeptide that binds CD3 and a lentiviral vector encoding an MNDU3 promoter operably linked to a polynucleotide encoding a CD8α signal peptide and an anti-BCMA CAR and a WPRE operably linked to the 3′ prime end of the polynucleotide encoding the anti-BCMA CAR (18 anti-BCMA CARs were evaluated) were co-cultured with Daudi cells (low BCMA expression) or RPMI-8226 cells (high BCMA expression) for 24 hours. After 24 hours, IFNγ levels in co-culture supernatant were measured and plotted as a function of % anti-BCMA CAR positive cells in the co-culture.
5×10⁴ PBMCs transduced with recombinant lentiviruses LV 1 to LV 19 were co-cultured with 5×10⁴ high BCMA-expressing tumor cells (RPMI-8226) or 5×10⁴ low BCMA-expressing tumor cells (Daudi) for 24 hours. Anti-BCMA CAR activity was assessed by harvesting co-culture supernatants and measuring IFNγ levels using a Meso Scale Discovery (MSD®) assay. The percentage of anti-BCMA CAR positive cells was plotted against IFNγ levels produced in co-culture. FIG. 2D.

B1: anti-BCMA CAR of recombinant lentivirus LV 10 (SEQ ID NO: 274) (other)
chain: EVQLLESGGGLVQPGGSLRLSCAASGFTFESEAMSWYRQAPGKERELVSVITSEGSTYYADSVKGRFTISRDNSKNTLYLQMNSLRAEDTAVYYCAHIEWETRLNWGQGTQVTVSSTTTPAPRPPTPAPTIASQPLSLRPEACRPAAGGAVHTRGLDFACDIYIWAPLAGTCGVLLLSLVITLYCKRGRKKLLYIFKQPFMRPVQTTQEEDGCSCRFPEEEEGGCELRVKFSRSADAPAYQQGQNQLYNELNLGRREEYDVLDKRRGRDPEMGGKPRRKNPQEGLYNELQKDKMAEAYSEIGMKGERRRGKGHDGLYQGLSTATKDTYDALHMQALPPR
notes: Chimeric antigen receptor on transduced human PBMCs: anti-BCMA VHH, CD8α hinge and TM, CD137 costim, CD3ζ
Take B1: the binding result is recorded as “binds”.

B2: anti-BCMA CAR of recombinant lentivirus LV 15 (SEQ ID NO: 279) (other)
chain: EVQLLESGGGLVQPGGSLRLSCAASGFTFDSYTMSWYRQAPGKERELVSAISGHGDSTYYADSVKGRFTISRDNSKNTLYLQMNSLRAEDTAVYYCTRISITTEWLAGDYWGQGTQVTVSSTTTPAPRPPTPAPTIASQPLSLRPEACRPAAGGAVHTRGLDFACDIYIWAPLAGTCGVLLLSLVITLYCKRGRKKLLYIFKQPFMRPVQTTQEEDGCSCRFPEEEEGGCELRVKFSRSADAPAYQQGQNQLYNELNLGRREEYDVLDKRRGRDPEMGGKPRRKNPQEGLYNELQKDKMAEAYSEIGMKGERRRGKGHDGLYQGLSTATKDTYDALHMQALPPR
notes: as for B1
As for B2, the binding result is “binds”.

B3: anti-BCMA CAR of recombinant lentivirus LV 9 (SEQ ID NO: 273) (other)
chain: EVQLLESGGGLVQPGGSLRLSCAASGFTFGSEAMSWVRQAPGKERELVSAISGSGEVTYYADSVKGRFTISRDNSKNTLYLQMNSLRAEDTAVYYCQRLVEAKRHWGQGTQVTVSSTTTPAPRPPTPAPTIASQPLSLRPEACRPAAGGAVHTRGLDFACDIYIWAPLAGTCGVLLLSLVITLYCKRGRKKLLYIFKQPFMRPVQTTQEEDGCSCRFPEEEEGGCELRVKFSRSADAPAYQQGQNQLYNELNLGRREEYDVLDKRRGRDPEMGGKPRRKNPQEGLYNELQKDKMAEAYSEIGMKGERRRGKGHDGLYQGLSTATKDTYDALHMQALPPR
notes: Chimeric antigen receptor on transduced human PBMCs: anti-BCMA VHH, CD8α hinge and TM, CD137 costim, CD3ζ; also called LV 9.1 to LV 9.9
Regarding B3, the binding result is listed as “binds”.

B4: anti-BCMA CAR of recombinant lentivirus LV 12 (SEQ ID NO: 276) (other)
chain: EVQLLESGGGLVQPGGSLRLSCAASGFTFEDYAMSWFRQAPGKEREGVSAISGKGGSTYYADSVKGRFTISRDNSKNTLYLQMNSLRAEDTAVYYCAVLDEEAGAEGGYWGQGTQVTVSSTTTPAPRPPTPAPTIASQPLSLRPEACRPAAGGAVHTRGLDFACDIYIWAPLAGTCGVLLLSLVITLYCKRGRKKLLYIFKQPFMRPVQTTQEEDGCSCRFPEEEEGGCELRVKFSRSADAPAYQQGQNQLYNELNLGRREEYDVLDKRRGRDPEMGGKPRRKNPQEGLYNELQKDKMAEAYSEIGMKGERRRGKGHDGLYQGLSTATKDTYDALHMQALPPR
notes: as for B1
In the case of B4, the binding result is reported as “binds”.

B5: anti-BCMA CAR of recombinant lentivirus LV 13 (SEQ ID NO: 277) (other)
chain: B4 chain with E30D, D31R, G53T, K54S, G56D
notes: Chimeric antigen receptor on transduced human PBMCs: anti-BCMA VHH, CD8α hinge and TM, CD137 costim, CD3ζ; also called LV 13.1 to LV 13.9
In the case of B5, the binding result is “binds”.

B6: anti-BCMA CAR of recombinant lentivirus LV 1 (SEQ ID NO: 256) (other)
chain: EIVLTQSPATLSLSPGERATLSCRASQSVSSYLAWYQQKPGQAPRLLIYDASNRATGIPARFSGSGSGTDFTLTISSLEPEDFAVYYCQQRVVYPITFGGGTKVEIKGGGGSGGGGSGGGGSGGGGSQITLKESGPTLVKPTQTLTLTCTFSGFSLSTSGVGVGWIRQPPGKALEWLALIYWNDEKRYSPSLKSRLTITKDTSKNQVVLTMTNMDPVDTAVYYCARDEYGGFDIWGQGTMVTVSSTTTPAPRPPTPAPTIASQPLSLRPEACRPAAGGAVHTRGLDFACDIYIWAPLAGTCGVLLLSLVITLYCKRGRKKLLYIFKQPFMRPVQTTQEEDGCSCRFPEEEEGGCELRVKFSRSADAPAYQQGQNQLYNELNLGRREEYDVLDKRRGRDPEMGGKPRRKNPQEGLYNELQKDKMAEAYSEIGMKGERRRGKGHDGLYQGLSTATKDTYDALHMQALPPR
notes: Chimeric antigen receptor on transduced human PBMCs: anti-BCMA scFv, CD8α hinge and TM, CD137 costim, CD3ζ; Encoded with a CD8α signal peptide
For B6, the binding result is “binds”.

B7: anti-BCMA CAR of recombinant lentivirus LV 2 (SEQ ID NO: 258) (other)
chain: B6 chain with V92F, V93D, E185D
notes: Chimeric antigen receptor on transduced human PBMCs: anti-BCMA scFv, CD8α hinge and TM, CD137 costim, CD3ζ
Consider B7, for which the binding result was “binds”.

B8: anti-BCMA CAR of recombinant lentivirus LV 5 (SEQ ID NO: 263) (other)
chain: QVQLVESGGGLVKPGGSLRLSCAASGFTFSDYYMSWIRQAPGKGLEWVSYISSSGSTIYYADSVKGRFTISRDNAKNSLYLQMNSLRAEDTAVYYCARDQGNYGVDVWGQGTTVTVSSGGGGSGGGGSGGGGSGGGGSDIQMTQSPSTLSASVGDRVTITCRASQSISSWLAWYQQKPGKAPKLLIYEASSLESGVPSRFSGSGSGTEFTLTISSLQPDDFATYYCQQSDSHPITFGGGTKVEIKTTTPAPRPPTPAPTIASQPLSLRPEACRPAAGGAVHTRGLDFACDIYIWAPLAGTCGVLLLSLVITLYCKRGRKKLLYIFKQPFMRPVQTTQEEDGCSCRFPEEEEGGCELRVKFSRSADAPAYQQGQNQLYNELNLGRREEYDVLDKRRGRDPEMGGKPRRKNPQEGLYNELQKDKMAEAYSEIGMKGERRRGKGHDGLYQGLSTATKDTYDALHMQALPPR
notes: Chimeric antigen receptor on transduced human PBMCs: anti-BCMA scFv, CD8α hinge and TM, CD137 costim, CD3ζ; also called LV 5.1 to LV 5.9
As to B8, the binding result is listed as “binds”.

B9: anti-BCMA CAR of recombinant lentivirus LV 8 (SEQ ID NO: 270) (other)
chain: DIQMTQSPSSLSASVGDRVTITCQASQDIANYLNWYQQKPGKAPKLLIYDASNLETGVPSRFSGSGSGTDFTFTISSLQPEDIATYYCQQHFNLPLTFGGGTKVEIKGGGGSGGGGSGGGGSGGGGSQITLKESGPTLVKPTQTLTLTCTFSGFSLSTSGVGVGWIRQPPGKALEWLALIYWNDEKRYSPSLKSRLTITKDTSKNQVVLTMTNMDPVDTAVYYCAREGSHDYKSSNWFDPWGQGTLVTVSSTTTPAPRPPTPAPTIASQPLSLRPEACRPAAGGAVHTRGLDFACDIYIWAPLAGTCGVLLLSLVITLYCKRGRKKLLYIFKQPFMRPVQTTQEEDGCSCRFPEEEEGGCELRVKFSRSADAPAYQQGQNQLYNELNLGRREEYDVLDKRRGRDPEMGGKPRRKNPQEGLYNELQKDKMAEAYSEIGMKGERRRGKGHDGLYQGLSTATKDTYDALHMQALPPR
notes: Chimeric antigen receptor on transduced human PBMCs: anti-BCMA scFv, CD8α hinge and TM, CD137 costim, CD3ζ; also called LV 8.1 to LV 8.9
In the case of B9, the binding result is given as “binds”.

B10: anti-BCMA CAR of recombinant lentivirus LV 3 (SEQ ID NO: 259) (other)
chain: QVQLVESGGGVVQPGRSLRLSCAASGFTFSSYGMHWVRQAPGKGLEWVAVISYEGSNKYYADSVKGRFTISRDNSKNTLYLQMNSLRAEDTAVYYCARELGDGMDVWGQGTTVTVSSGGGGSGGGGSGGGGSGGGGSEIVLTQSPATLSLSPGERATLSCRASQSVSSYLAWFQQKPGQAPRLLIYDASNRATGIPARFSGSGSGTDFTLTISSLEPEDFAVYYCQQRVDLWTFGGGTKVEIKTTTPAPRPPTPAPTIASQPLSLRPEACRPAAGGAVHTRGLDFACDIYIWAPLAGTCGVLLLSLVITLYCKRGRKKLLYIFKQPFMRPVQTTQEEDGCSCRFPEEEEGGCELRVKFSRSADAPAYQQGQNQLYNELNLGRREEYDVLDKRRGRDPEMGGKPRRKNPQEGLYNELQKDKMAEAYSEIGMKGERRRGKGHDGLYQGLSTATKDTYDALHMQALPPR
notes: Chimeric antigen receptor on transduced human PBMCs: anti-BCMA scFv, CD8α hinge and TM, CD137 costim, CD3ζ; also called LV 3.1 to LV 3.9
Turning to B10, the binding result is reported as “binds”.

B11: anti-BCMA CAR of recombinant lentivirus LV 11 (SEQ ID NO: 275) (other)
chain: EVQLLESGGGLVQPGGSLRLSCAASGFTFDEYTMHWFRQAPGKEREFVSAISGGGSETYYADSVKGRFTISRDNSKNTLYLQMNSLRAEDTAVYYCAAGGEEAGVGYWGQGTQVTVSSTTTPAPRPPTPAPTIASQPLSLRPEACRPAAGGAVHTRGLDFACDIYIWAPLAGTCGVLLLSLVITLYCKRGRKKLLYIFKQPFMRPVQTTQEEDGCSCRFPEEEEGGCELRVKFSRSADAPAYQQGQNQLYNELNLGRREEYDVLDKRRGRDPEMGGKPRRKNPQEGLYNELQKDKMAEAYSEIGMKGERRRGKGHDGLYQGLSTATKDTYDALHMQALPPR
notes: as for B1
Turning to B11, the binding result is “binds”.

B12: anti-BCMA CAR of recombinant lentivirus LV 18 (SEQ ID NO: 283) (other)
chain: EVQLLESGGGLVQPGGSLRLSCAASGFTFSSEGMSWVRQAPGKERELVSAISGSGDHTYYADSVRGRFTISRDNSKNTLYLQMNSLRAEDTAVYYCNALEGGPTTAIQPGGPDYWGQGTQVTVSSTTTPAPRPPTPAPTIASQPLSLRPEACRPAAGGAVHTRGLDFACDIYIWAPLAGTCGVLLLSLVITLYCKRGRKKLLYIFKQPFMRPVQTTQEEDGCSCRFPEEEEGGCELRVKFSRSADAPAYQQGQNQLYNELNLGRREEYDVLDKRRGRDPEMGGKPRRKNPQEGLYNELQKDKMAEAYSEIGMKGERRRGKGHDGLYQGLSTATKDTYDALHMQALPPR
notes: as for B1
As for B12, the binding result is recorded as “binds”.

B13: anti-BCMA CAR of recombinant lentivirus LV 7 (SEQ ID NO: 268) (other)
chain: DIQMTQSPSSLSASVGDRVTITCRASQSISSYLNWYQQKPGKAPKLLIYAASSLQSGVPSRFSGSGSGTDFTLTISSLQPEDFATYYCQQAHSSPITFGGGTKVEIKGGGGSGGGGSGGGGSGGGGSEVQLLESGGGLVQPGGSLRLSCAASGFTFSNYAMSWVRQAPGKGLEWVSAISGSGGSTYYADSVKGRFTISRDNSKNTLYLQMNSLRAEDTAVYYCARPGDGYYEGVYFDYWGQGTLVTVSSTTTPAPRPPTPAPTIASQPLSLRPEACRPAAGGAVHTRGLDFACDIYIWAPLAGTCGVLLLSLVITLYCKRGRKKLLYIFKQPFMRPVQTTQEEDGCSCRFPEEEEGGCELRVKFSRSADAPAYQQGQNQLYNELNLGRREEYDVLDKRRGRDPEMGGKPRRKNPQEGLYNELQKDKMAEAYSEIGMKGERRRGKGHDGLYQGLSTATKDTYDALHMQALPPR
notes: as for B7
Regarding B13, the binding result is given as “binds”.

Source of the values: patent US20260007748A1 (KELONIA THERAPEUTICS, published 2026).
